In experiment [1] the target is T1, human FcRIIB/C protein (MednaBio, E1034) (human, UniProt P31994 43-217, limits assumed).
T1 construct: Bought as FcRIIB/C; also called FcγRIIB; CD32B
T1 sequence (looked up): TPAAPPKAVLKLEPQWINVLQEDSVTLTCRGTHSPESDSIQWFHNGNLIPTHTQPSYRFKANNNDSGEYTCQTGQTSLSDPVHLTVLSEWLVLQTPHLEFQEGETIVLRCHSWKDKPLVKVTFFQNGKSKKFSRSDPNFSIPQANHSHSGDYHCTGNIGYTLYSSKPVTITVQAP
Kind of experiment: BLI. Put shortly: (§1)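 Binding was measured by biolayer interferometry on an Octet Red96 System. Commercial human Fc receptor proteins were loaded at 20 μg/mL onto anti-penta-HIS biosensors, which were then dipped into an 8-point 1:3 dilution series of test IgG starting at 300 nM in PBS with 0.1% BSA and 0.02% Tween-20, at pH 7.2 for Fcγ receptors and pH 6 for FcRn. Kd, kon and koff were obtained by global fitting, with data fitted to a 1:1 binding model.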

Experiment [2] has as its target T2, human FcRIIIA-V158 protein (MednaBio, E1035) (human, UniProt P08637 17-208).
T2 construct: Bought; also called FcγRIIIA(V); FcgRIIIA(V)
Description: BLI. The method, boiled down: as §1
(Biolayer interferometry detects binding as a change in optical thickness at a sensor tip.)

For experiment [3], the target named is T3, human FcRI protein (MednaBio, E1031) (human, UniProt P12314 16-288, limits assumed).
T3 construct: Bought; loaded on anti-penta-HIS biosensors; also called FcγRI
T3 sequence (P12314 16-288 limits assumed): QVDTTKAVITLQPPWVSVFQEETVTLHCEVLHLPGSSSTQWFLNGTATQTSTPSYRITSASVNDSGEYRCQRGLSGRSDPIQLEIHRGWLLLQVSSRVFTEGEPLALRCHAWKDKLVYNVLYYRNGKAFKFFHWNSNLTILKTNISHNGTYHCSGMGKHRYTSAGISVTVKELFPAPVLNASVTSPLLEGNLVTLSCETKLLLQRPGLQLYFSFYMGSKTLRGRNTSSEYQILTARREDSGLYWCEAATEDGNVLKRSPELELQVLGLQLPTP
Description: BLI. The method, boiled down:
as §1

The target in experiment [4] is T4, human FcRIIIB protein (MednaBio, E1037) (human, UniProt O75015 17-200).
T4 construct: Bought; also called FcγRIIIB; FcgRIIIB
T4 sequence (O75015 17-200 limits assumed): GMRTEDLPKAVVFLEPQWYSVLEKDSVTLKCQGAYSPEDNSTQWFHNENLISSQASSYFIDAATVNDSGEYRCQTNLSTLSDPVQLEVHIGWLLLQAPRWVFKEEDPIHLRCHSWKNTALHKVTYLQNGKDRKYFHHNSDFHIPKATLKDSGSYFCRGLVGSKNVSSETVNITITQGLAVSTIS
Description: BLI. The method, boiled down: as §1

For experiment [5], the target named is T5, human FcRIIIA-F158 protein (MednaBio, E1036) (human, UniProt P08637 17-208).
T5 construct: Bought; also called FcγRIIIA(F)
T5 sequence (P08637 17-208 limits assumed): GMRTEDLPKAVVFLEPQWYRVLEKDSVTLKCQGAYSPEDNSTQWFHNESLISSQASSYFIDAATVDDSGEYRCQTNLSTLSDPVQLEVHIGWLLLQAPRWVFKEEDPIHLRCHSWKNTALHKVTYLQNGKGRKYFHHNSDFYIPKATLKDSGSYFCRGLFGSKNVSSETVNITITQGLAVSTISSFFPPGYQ
Kind of experiment: BLI. Put shortly: as §1

Experiment [6] has as its target T6, human FcRn protein (MednaBio, E1032) (human, UniProt P55899 24-297; P61769 21-119).
T6 construct: Bought; assays at pH 6
Kind of experiment: BLI. Put shortly:
as §1

For experiment [7], the target named is T7, human FcRIIA protein (MednaBio, E1033) (human, UniProt P12318 34-218, limits assumed).
T7 construct: Bought; also called FcγRIIA
T7 sequence (looked up): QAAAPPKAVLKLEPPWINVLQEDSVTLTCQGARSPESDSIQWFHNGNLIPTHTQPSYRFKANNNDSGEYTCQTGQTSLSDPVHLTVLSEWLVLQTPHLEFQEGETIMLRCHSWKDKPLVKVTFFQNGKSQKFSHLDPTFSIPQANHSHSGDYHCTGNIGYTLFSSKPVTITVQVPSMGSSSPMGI
Kind of experiment: BLI. Put shortly:
as §1

In experiment [8] the target is T8, human FcγRIIA(R131) expressed on CHO cells (human, UniProt P12318 34-317).
T8 construct: whole, on cells
T8 sequence (looked up): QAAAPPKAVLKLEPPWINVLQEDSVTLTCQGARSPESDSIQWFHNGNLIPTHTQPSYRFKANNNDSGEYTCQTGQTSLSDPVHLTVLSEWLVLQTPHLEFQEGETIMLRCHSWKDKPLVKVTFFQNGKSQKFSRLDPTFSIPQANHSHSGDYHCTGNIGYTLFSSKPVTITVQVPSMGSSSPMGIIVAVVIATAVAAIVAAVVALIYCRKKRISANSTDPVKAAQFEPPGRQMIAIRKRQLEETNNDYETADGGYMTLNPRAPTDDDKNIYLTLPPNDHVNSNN
Description: FACS, CHO cells expressing FcγRIIA(R131). On the procedure: For FACS analysis of the IgG mutants' binding to different FcγRs, FcγR overexpressing CHO cells were harvested using trypsin-EDTA and were suspended in cold staining buffer (3% BSA in PBS). Test IgG mutants, which were diluted in staining buffer, were added into the cells. The mixture was incubated 4° C. for 2 hours, and then washed twice with cold staining buffer and re-suspended in PE-labeled anti-human IgG followed by incubation at 4° C. for 2 hours. The mixture was washed twice with staining buffer and re-suspended in 2% PFA in PBS for FACS.
A general note: Flow cytometry measures light scatter and fluorescence of single cells or particles in a stream.

Experiment [9] deals with T1, human FcRIIB/C protein (MednaBio, E1034). Kind of experiment: BLI. Put shortly: as §1
The source holds these as a separate data set.

Experiment [10] concerns the target T2, human FcRIIIA-V158 protein (MednaBio, …). Description: BLI. Put shortly:
as §1
The source holds these as a separate data set.

The target in experiment [11] is T3, human FcRI protein (MednaBio, E1031). Kind of experiment: BLI. Put shortly: as §1
The source holds these as a separate data set.

The target of experiment [12] is T4, human FcRIIIB protein (MednaBio, E1037). Description: BLI. Put shortly:
as §1
This is another data set of the same source.

In experiment [13] the target is T5, human FcRIIIA-F158 protein (MednaBio, …). Description: BLI. Put shortly:
as §1
The source holds these as a separate data set.

Experiment [14] deals with T6, human FcRn protein (MednaBio, E1032). Kind of experiment: BLI. Put shortly: as §1
The source holds these as a separate data set.

Experiment [15] has as its target T7, human FcRIIA protein (MednaBio, E1033). Kind of experiment: BLI. Put shortly:
as §1
The source holds these as a separate data set.

Like-named read-outs stand apart in the source and are kept apart here.

The source of these data is patent US20200392227A1 (LYVGEN BIOPHARMA, published 2020).

T2 sequence (P08637 17-208 F176V): as the sequence (P08637 17-208 limits assumed) above, with F160V counted along it
T6 sequence (P55899 24-297 limits assumed, form in doubt, chain 1 of 2): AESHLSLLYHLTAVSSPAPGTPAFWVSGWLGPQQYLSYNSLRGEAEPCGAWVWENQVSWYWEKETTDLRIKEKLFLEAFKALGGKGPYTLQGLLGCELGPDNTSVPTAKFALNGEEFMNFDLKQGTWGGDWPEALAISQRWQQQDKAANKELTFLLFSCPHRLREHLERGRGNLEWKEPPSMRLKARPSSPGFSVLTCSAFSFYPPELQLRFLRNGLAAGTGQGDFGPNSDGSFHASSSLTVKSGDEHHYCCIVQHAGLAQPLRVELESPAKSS
T6 sequence (P61769 21-119 limits assumed, form in doubt, chain 2 of 2): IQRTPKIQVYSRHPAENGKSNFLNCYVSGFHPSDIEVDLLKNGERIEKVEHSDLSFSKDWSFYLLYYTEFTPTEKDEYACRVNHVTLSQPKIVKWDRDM

B1: anti-CD137 IgG2 with Fc variant G2m5 (antibody)
heavy: EVQLVQSGAEVKKPGESLRISCKGSGYSFSTYWISWVRQMPGKGLEWMGKIYPGDSYTNYSPSFQGQVTISADKSISTAYLQWSSLKASDTAMYYCARGYGIFDYWGQGTLVTVSSASTKGPSVFPLAPCSRSTSESTAALGCLVKDYFPEPVTVSWNSGALTSGVHTFPAVLQSSGLYSLSSVVTVPSSNFGTQTYTCNVDHKPSNTKVDKTVERKCCVECPPCPAPPVAGPSVFLFPPKPKDTLMISRTPEVTCVVVDVSHEDPEEQFNWYVDGVEVHNAKTKPREEQFNSTFRVVSVLTVVHQDWLNGKEYKCKVSNKGLPAPIEKTISKTKGQPREPQVYTLPPSREEMTKNQVSLTCLVKGFYPSDIAVEWESNGQPENNYKTTPPMLDSDGSFFLYSKLTVDKSRWQQGNVFSCSVMHEALHNHYTQKSLSLSPGK
light: SYELTQPPSVSVSPGQTASITCSGDNIGDQYAHWYQQKPGQSPVLVIYQDKNRPSGIPERFSGSNSGNTATLTISGTQAMDEADYYCATYTGFGSLAVFGGGTKLTVLGQPKAAPSVTLFPPSSEELQANKATLVCLISDFYPGAVTVAWKADSSPVKAGVETTTPSKQSNNKYAASSYLSLTPEQWKSHRSYSCQVTHEGSTVEKTVAPTECS
notes: copies: 2 + 2
For B1, the Kd (in general, the free concentration of one partner at which half of the binding sites on the other are occupied at equilibrium, for simple one-to-one binding) in experiment [1] worked out at 310 nM; in [6] it was 14 nM; in experiment [7] it was 230 nM. For the same molecule, the koff (commonly the rate constant with which the complex falls apart) in [1] stood at 0.12 s⁻¹; in experiment [6], 0.011 s⁻¹; in [7] it was 0.14 s⁻¹. The kon – broadly, the second-order rate constant of association – in experiment [1] is 390000 M⁻¹ s⁻¹; in experiment [6], 800000 M⁻¹ s⁻¹; in experiment [7], 600000 M⁻¹ s⁻¹. Besides, the binding result in experiment [2] was “no binding (tested: 300 nM)”; in experiment [3] it was “no binding (tested: 300 nM)”; in [4], “no binding (tested: 300 nM)”; in experiment [5], “no binding (tested: 300 nM)”; in [8] it was “no binding (tested: 10 ug/ml)”.

B2: anti-CD137 IgG2 with Fc variant G2m20 (antibody)
heavy: EVQLVQSGAEVKKPGESLRISCKGSGYSFSTYWISWVRQMPGKGLEWMGKIYPGDSYTNYSPSFQGQVTISADKSISTAYLQWSSLKASDTAMYYCARGYGIFDYWGQGTLVTVSSASTKGPSVFPLAPCSRSTSESTAALGCLVKDYFPEPVTVSWNSGALTSGVHTFPAVLQSSGLYSLSSVVTVPSSNFGTQTYTCNVDHKPSNTKVDKTVERKCCVECPPCPAPPVAPSVFLFPPKPKDTLMISRTPEVTCVVVDVSHEDPEVQFNWYVDGVEVHNAKTKPREEQFNSTFRVVSVLTVVHQDWLNGKEYKCKVSNKGLPAPIEKTISKTKGQPREPQVYTLPPSREEMTKNQVSLTCLVKGFYPSDIAVEWESNGQPENNYKTTPPMLDSDGSFFLYSKLTVDKSRWQQGNVFSCSVMHEALHNHYTQKSLSLSPGK
light: SYELTQPPSVSVSPGQTASITCSGDNIGDQYAHWYQQKPGQSPVLVIYQDKNRPSGIPERFSGSNSGNTATLTISGTQAMDEADYYCATYTGFGSLAVFGGGTKLTVLGQPKAAPSVTLFPPSSEELQANKATLVCLISDFYPGAVTVAWKADSSPVKAGVETTTPSKQSNNKYAASSYLSLTPEQWKSHRSYSCQVTHEGSTVEKTVAPTECS
notes: copies: 2 + 2
In the case of B2, the Kd in experiment [9] is 517 nM; in [10] it was 1260 nM; in experiment [13] it was 917 nM; in experiment [14] it was 57.6 nM; in experiment [15] it was 829 nM. For the same molecule, the off-rate (koff) was determined as 0.0915 s⁻¹ in experiment [9]; 0.0149 s⁻¹ in experiment [10]; 0.013 s⁻¹ in experiment [13]; 0.0122 s⁻¹ in [14]; 0.0165 s⁻¹ in experiment [15]. Further, the on-rate (kon) in experiment [9] was determined as 176000 M⁻¹ s⁻¹; in experiment [10], 11800 M⁻¹ s⁻¹; in [13] it was 14300 M⁻¹ s⁻¹; in [14], 212000 M⁻¹ s⁻¹; in experiment [15] it was 19900 M⁻¹ s⁻¹. Moreover, the binding result in [11] and in experiment [12] was “no binding (tested: 300 nM)” in each case.

B3: anti-CD137 IgG2 with Fc variant G2m17 (antibody)
heavy: EVQLVQSGAEVKKPGESLRISCKGSGYSFSTYWISWVRQMPGKGLEWMGKIYPGDSYTNYSPSFQGQVTISADKSISTAYLQWSSLKASDTAMYYCARGYGIFDYWGQGTLVTVSSASTKGPSVFPLAPCSRSTSESTAALGCLVKDYFPEPVTVSWNSGALTSGVHTFPAVLQSSGLYSLSSVVTVPSSNFGTQTYTCNVDHKPSNTKVDKTVERKCCVECPPCPAPPVASVFLFPPKPKDTLMISRTPEVTCVVVDVEHEDPEVQFNWYVDGVEVHNAKTKPREEQFNSTFRVVSVLTVVHQDWLNGKEYKCKVSNKGLPAPIEKTISKTKGQPREPQVYTLPPSREEMTKNQVSLTCLVKGFYPSDIAVEWESNGQPENNYKTTPPMLDSDGSFFLYSKLTVDKSRWQQGNVFSCSVMHEALHNHYTQKSLSLSPGK
light: SYELTQPPSVSVSPGQTASITCSGDNIGDQYAHWYQQKPGQSPVLVIYQDKNRPSGIPERFSGSNSGNTATLTISGTQAMDEADYYCATYTGFGSLAVFGGGTKLTVLGQPKAAPSVTLFPPSSEELQANKATLVCLISDFYPGAVTVAWKADSSPVKAGVETTTPSKQSNNKYAASSYLSLTPEQWKSHRSYSCQVTHEGSTVEKTVAPTECS
notes: copies: 2 + 2
B3: the equilibrium dissociation constant (Kd) in [9] was found to be 236 nM; in experiment [10], 153 nM; in experiment [11], 253 nM; in experiment [12], 117 nM; in [13], 168 nM; in [14] it was 7.46 nM. This molecule also returned a Kd in experiment [15] of 422 nM. Besides, the koff in experiment [9] was found to be 0.0848 s⁻¹; in experiment [10], 0.205 s⁻¹; in [11], 0.277 s⁻¹; in experiment [12], 0.204 s⁻¹; in experiment [13], 0.262 s⁻¹; in [14] it was 0.0139 s⁻¹. Besides, the off-rate (koff) in experiment [15] is 0.274 s⁻¹. The association rate constant (kon) in experiment [9] amounted to 361000 M⁻¹ s⁻¹; in experiment [10], 1.34e+06 M⁻¹ s⁻¹; in [11] it was 1.09e+06 M⁻¹ s⁻¹; in [12], 1.74e+06 M⁻¹ s⁻¹; in experiment [13], 1.56e+06 M⁻¹ s⁻¹; in [14], 1.87e+06 M⁻¹ s⁻¹. Also, the kon in [15] came out at 648000 M⁻¹ s⁻¹.
